Data taken from patent US20260009052, “CAS12 PROTEINS AND USES THEREOF” (GUANGZHOU REFORGENE MEDICINE CO., LTD., published 2026).
Residue numbers refer to the chain shown, from its start.

Experiments:
[1] = target: T1, C12-279 D352R/Q186R/H350R (synthetic construct, Q186R,H350R,D352R); assay: cell_activity; PAM TTG
T1 chain: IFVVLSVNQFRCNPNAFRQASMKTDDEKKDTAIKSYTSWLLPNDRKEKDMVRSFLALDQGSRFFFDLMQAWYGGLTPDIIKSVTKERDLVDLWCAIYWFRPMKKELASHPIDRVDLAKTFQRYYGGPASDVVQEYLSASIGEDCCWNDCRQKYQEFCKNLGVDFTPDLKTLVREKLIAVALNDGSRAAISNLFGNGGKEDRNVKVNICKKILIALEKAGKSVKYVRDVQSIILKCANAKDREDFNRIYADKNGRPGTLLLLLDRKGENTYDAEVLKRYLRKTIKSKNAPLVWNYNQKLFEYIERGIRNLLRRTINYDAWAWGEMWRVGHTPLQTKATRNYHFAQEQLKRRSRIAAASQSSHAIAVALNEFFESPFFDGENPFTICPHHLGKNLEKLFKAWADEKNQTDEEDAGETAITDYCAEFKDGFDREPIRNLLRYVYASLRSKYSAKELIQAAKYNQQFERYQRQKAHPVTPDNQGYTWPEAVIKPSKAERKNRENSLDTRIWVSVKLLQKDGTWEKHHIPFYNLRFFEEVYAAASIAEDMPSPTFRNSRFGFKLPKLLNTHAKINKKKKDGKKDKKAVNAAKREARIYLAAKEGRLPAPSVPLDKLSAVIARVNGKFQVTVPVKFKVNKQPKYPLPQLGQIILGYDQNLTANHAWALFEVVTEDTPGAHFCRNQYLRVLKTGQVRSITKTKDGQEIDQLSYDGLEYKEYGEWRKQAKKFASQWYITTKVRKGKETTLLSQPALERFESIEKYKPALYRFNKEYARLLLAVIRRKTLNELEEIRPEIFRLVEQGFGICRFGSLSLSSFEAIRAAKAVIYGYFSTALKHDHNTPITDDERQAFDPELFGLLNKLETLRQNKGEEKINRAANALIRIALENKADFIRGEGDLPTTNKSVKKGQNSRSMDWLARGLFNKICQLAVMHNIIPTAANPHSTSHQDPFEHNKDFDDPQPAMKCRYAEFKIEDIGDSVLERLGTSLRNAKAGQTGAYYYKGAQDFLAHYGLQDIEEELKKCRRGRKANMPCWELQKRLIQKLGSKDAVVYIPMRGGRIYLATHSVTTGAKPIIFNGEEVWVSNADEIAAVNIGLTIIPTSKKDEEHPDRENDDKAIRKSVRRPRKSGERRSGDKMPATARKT
Method: (§1) Transfection: transfection was performed 12-14 h after plating. 1.5 μL PEI (Yeasen Biotechnology, 40815ES03, Polyethylenimine Linear (PEI) MW25000) and 500 ng mutation clone plasmid were added to 100 μL Opti-MEM per well of the 24-well plate, mixed, and added to the NAAN cell line for cell transfection after placing at room temperature for 20 min. After overnight transfection, a fresh culture medium was replaced, and the culture was continued for 72 h, followed by flow cytometry. Editing efficiencies of different mutant clones were characterized by the proportion of GFP-positive cells.
(§2) Editing efficiency of some selected mutants was tested in Reporter3 cell line using the same manner as described for the NAAN reporter system, except that the cell line was changed from NAAN cell line to Reporter3 cell line.

C12-279 Mut-03 = target: T2, C12-279 Mut-03 (synthetic construct, G184R,Q186R,D352R); assay: cell_activity; PAM TTG
T2 chain: T1 chain with G184R, R350H
Method: as §1, §2

B1: C12-279 Reporter3 sgRNA ; Reporter3 target (ssRNA ; dsDNA)
RNA: GUAAUGCGUCUCCCAUUGACGCCUCACCUCGCGACGCAAUGAUG
DNA 1: CTCACCTCGCGACGCAATGATG
DNA 2: CATCATTGCGTCGCGAGGTGAG
Question: What does the source list for B1?
Answer: binding signal [1]: 2.11 fold of C12-279; binding signal (C12-279 Mut-03): 2.28 fold of C12-279
